Source: patent US20260242735A1 (UNIVERSIT T BASEL, published 2026)

Legend:
Assay in all cases: flow cytometry, mutant on cells, IgG
human CD33 P19W = human CD33 P19W (human, UniProt P20138 18-364)
Protocol: (§1) An alanine scan on human CD33 was performed to the determine the residues on CD33 that are involved in binding to the antibodies investigated. […] Briefly, a mutation library of CD33 was created by high-throughput, site-directed mutagenesis. Each residue was individually mutated to alanine, with alanine codons mutated to serine. The mutant library was arrayed in 384-well microplates and transiently transfected into HEK293-T. Following transfection, cells were incubated with the indicated antibodies (IgG or Fab) at concentrations pre-determined using an independent immunofluorescence titration curve on wild type CD33. […] Binding of each antibody to each mutant clone was determined in duplicates. For each point, background fluorescence was subtracted from the raw data, which were then normalized to antibody reactivity with wild type CD33.
(§2) Antibodies were screened for binding to the human CD33 variants in IgG format. […] For each mutation, background fluorescence was subtracted from the raw data, which were then normalized to antibody reactivity with wild-type CD33.

human CD33 N20G = human CD33 N20G (human, UniProt P20138 18-364)
Protocol: as §1, §2

human CD33 N20S = human CD33 N20S (human, UniProt P20138 18-364)
Protocol: as §1, §2

human CD33 N20T = human CD33 N20T (human, UniProt P20138 18-364)
Protocol: as §1, §2

human CD33 N20L = human CD33 N20L (human, UniProt P20138 18-364)
Protocol: as §1, §2

human CD33 N20P = human CD33 N20P (human, UniProt P20138 18-364)
Protocol: as §1, §2

human CD33 N20W = human CD33 N20W (human, UniProt P20138 18-364)
Protocol: as §1, §2

human CD33 N20E = human CD33 N20E (human, UniProt P20138 18-364)
Protocol: as §1, §2

human CD33 N20V = human CD33 N20V (human, UniProt P20138 18-364)
Protocol: as §1, §2

human CD33 F21S = human CD33 F21S (human, UniProt P20138 18-364)
Protocol: as §1, §2

human CD33 F21I = human CD33 F21I (human, UniProt P20138 18-364)
Protocol: as §1, §2

human CD33 W22T = human CD33 W22T (human, UniProt P20138 18-364)
Protocol: as §1, §2

human CD33 W22R = human CD33 W22R (human, UniProt P20138 18-364)
Protocol: as §1, §2

human CD33 L23M = human CD33 L23M (human, UniProt P20138 18-364)
Protocol: as §1, §2

human CD33 Q24S = human CD33 Q24S (human, UniProt P20138 18-364)
Protocol: as §1, §2

human CD33 Q24T = human CD33 Q24T (human, UniProt P20138 18-364)
Protocol: as §1, §2

human CD33 Q24L = human CD33 Q24L (human, UniProt P20138 18-364)
Protocol: as §1, §2

human CD33 Q24N = human CD33 Q24N (human, UniProt P20138 18-364)
Protocol: as §1, §2

human CD33 V25S = human CD33 V25S (human, UniProt P20138 18-364)
Protocol: as §1, §2

human CD33 T42K = human CD33 T42K (human, UniProt P20138 18-364)
Protocol: as §1, §2

human CD33 T42P = human CD33 T42P (human, UniProt P20138 18-364)
Protocol: as §1, §2

human CD33 F43V = human CD33 F43V (human, UniProt P20138 18-364)
Protocol: as §1, §2

human CD33 F44S = human CD33 F44S (human, UniProt P20138 18-364)
Protocol: as §1, §2

human CD33 F44P = human CD33 F44P (human, UniProt P20138 18-364)
Protocol: as §1, §2

human CD33 F44Q = human CD33 F44Q (human, UniProt P20138 18-364)
Protocol: as §1, §2

human CD33 F44D = human CD33 F44D (human, UniProt P20138 18-364)
Protocol: as §1, §2

human CD33 F44T = human CD33 F44T (human, UniProt P20138 18-364)
Protocol: as §1, §2

human CD33 D18N = human CD33 D18N (human, UniProt P20138 19-364)
Protocol: as §1, §2

human CD33 P46I = human CD33 P46I (human, UniProt P20138 18-364)
Protocol: as §1, §2

human CD33 P46L = human CD33 P46L (human, UniProt P20138 18-364)
Protocol: as §1, §2

human CD33 P46F = human CD33 P46F (human, UniProt P20138 18-364)
Protocol: as §1, §2

human CD33 P46R = human CD33 P46R (human, UniProt P20138 18-364)
Protocol: as §1, §2

human CD33 P19L = human CD33 P19L (human, UniProt P20138 18-364)
Protocol: as §1, §2

human CD33 P19D = human CD33 P19D (human, UniProt P20138 18-364)
Chain of human CD33 P19D (P20138 18-364 P19D limits assumed): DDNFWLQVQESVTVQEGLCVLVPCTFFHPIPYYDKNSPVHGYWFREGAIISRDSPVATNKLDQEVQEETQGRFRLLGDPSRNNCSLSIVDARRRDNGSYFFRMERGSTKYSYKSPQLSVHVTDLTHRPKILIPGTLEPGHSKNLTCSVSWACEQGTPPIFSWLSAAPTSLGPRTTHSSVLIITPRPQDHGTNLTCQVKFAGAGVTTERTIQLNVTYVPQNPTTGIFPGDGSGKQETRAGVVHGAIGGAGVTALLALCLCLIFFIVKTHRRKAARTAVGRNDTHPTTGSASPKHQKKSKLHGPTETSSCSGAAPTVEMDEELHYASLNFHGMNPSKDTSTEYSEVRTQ
Protocol: as §1, §2

Chain of human CD33 F44P (P20138 18-364 F44P limits assumed): as the sequence (P20138 18-364 P19D limits assumed) above, with D2P, F27P counted along it
Chain of human CD33 N20L (P20138 18-364 N20L limits assumed): as the sequence (P20138 18-364 P19D limits assumed) above, with D2P, N3L counted along it
Chain of human CD33 F44S (P20138 18-364 F44S limits assumed): as the sequence (P20138 18-364 P19D limits assumed) above, with D2P, F27S counted along it
Chain of human CD33 P19W (P20138 18-364 P19W limits assumed): as the sequence (P20138 18-364 P19D limits assumed) above, with D2W counted along it
Chain of human CD33 N20T (P20138 18-364 N20T limits assumed): as the sequence (P20138 18-364 P19D limits assumed) above, with D2P, N3T counted along it
Chain of human CD33 P46I (P20138 18-364 P46I limits assumed): as the sequence (P20138 18-364 P19D limits assumed) above, with D2P, P29I counted along it
Chain of human CD33 N20E (P20138 18-364 N20E limits assumed): as the sequence (P20138 18-364 P19D limits assumed) above, with D2P, N3E counted along it
Chain of human CD33 W22R (P20138 18-364 W22R limits assumed): as the sequence (P20138 18-364 P19D limits assumed) above, with D2P, W5R counted along it
Chain of human CD33 P46F (P20138 18-364 P46F limits assumed): as the sequence (P20138 18-364 P19D limits assumed) above, with D2P, P29F counted along it
Chain of human CD33 W22T (P20138 18-364 W22T limits assumed): as the sequence (P20138 18-364 P19D limits assumed) above, with D2P, W5T counted along it
Chain of human CD33 T42P (P20138 18-364 T42P limits assumed): as the sequence (P20138 18-364 P19D limits assumed) above, with D2P, T25P counted along it
Chain of human CD33 T42K (P20138 18-364 T42K limits assumed): as the sequence (P20138 18-364 P19D limits assumed) above, with D2P, T25K counted along it
Chain of human CD33 N20P (P20138 18-364 N20P limits assumed): as the sequence (P20138 18-364 P19D limits assumed) above, with D2P, N3P counted along it
Chain of human CD33 F44Q (P20138 18-364 F44Q limits assumed): as the sequence (P20138 18-364 P19D limits assumed) above, with D2P, F27Q counted along it
Chain of human CD33 F44T (P20138 18-364 F44T limits assumed): as the sequence (P20138 18-364 P19D limits assumed) above, with D2P, F27T counted along it
Chain of human CD33 F43V (P20138 18-364 F43V limits assumed): as the sequence (P20138 18-364 P19D limits assumed) above, with D2P, F26V counted along it
Chain of human CD33 P46R (P20138 18-364 P46R limits assumed): as the sequence (P20138 18-364 P19D limits assumed) above, with D2P, P29R counted along it
Chain of human CD33 Q24S (P20138 18-364 Q24S limits assumed): as the sequence (P20138 18-364 P19D limits assumed) above, with D2P, Q7S counted along it
Chain of human CD33 N20V (P20138 18-364 N20V limits assumed): as the sequence (P20138 18-364 P19D limits assumed) above, with D2P, N3V counted along it
Chain of human CD33 F21I (P20138 18-364 F21I limits assumed): as the sequence (P20138 18-364 P19D limits assumed) above, with D2P, F4I counted along it
Chain of human CD33 N20G (P20138 18-364 N20G limits assumed): as the sequence (P20138 18-364 P19D limits assumed) above, with D2P, N3G counted along it
Chain of human CD33 P19L (P20138 18-364 P19L limits assumed): as the sequence (P20138 18-364 P19D limits assumed) above, with D2L counted along it
Chain of human CD33 Q24L (P20138 18-364 Q24L limits assumed): as the sequence (P20138 18-364 P19D limits assumed) above, with D2P, Q7L counted along it
Chain of human CD33 D18N (P20138 18-364 D18N limits assumed): as the sequence (P20138 18-364 P19D limits assumed) above, with D1N, D2P counted along it
Chain of human CD33 L23M (P20138 18-364 L23M limits assumed): as the sequence (P20138 18-364 P19D limits assumed) above, with D2P, L6M counted along it
Chain of human CD33 N20S (P20138 18-364 N20S limits assumed): as the sequence (P20138 18-364 P19D limits assumed) above, with D2P, N3S counted along it
Chain of human CD33 V25S (P20138 18-364 V25S limits assumed): as the sequence (P20138 18-364 P19D limits assumed) above, with D2P, V8S counted along it
Chain of human CD33 N20W (P20138 18-364 N20W limits assumed): as the sequence (P20138 18-364 P19D limits assumed) above, with D2P, N3W counted along it
Chain of human CD33 P46L (P20138 18-364 P46L limits assumed): as the sequence (P20138 18-364 P19D limits assumed) above, with D2P, P29L counted along it
Chain of human CD33 Q24N (P20138 18-364 Q24N limits assumed): as the sequence (P20138 18-364 P19D limits assumed) above, with D2P, Q7N counted along it
Chain of human CD33 F21S (P20138 18-364 F21S limits assumed): as the sequence (P20138 18-364 P19D limits assumed) above, with D2P, F4S counted along it
Chain of human CD33 Q24T (P20138 18-364 Q24T limits assumed): as the sequence (P20138 18-364 P19D limits assumed) above, with D2P, Q7T counted along it
Chain of human CD33 F44D (P20138 18-364 F44D limits assumed): as the sequence (P20138 18-364 P19D limits assumed) above, with D2P, F27D counted along it

| Mean % WT Binding (human CD33 P19W) [% WT binding] | Mean % WT Binding (human CD33 N20G) [% WT binding] | Mean % WT Binding (human CD33 N20S) [% WT binding] | Mean % WT Binding (human CD33 N20T) [% WT binding] | Mean % WT Binding (human CD33 N20L) [% WT binding] | Mean % WT Binding (human CD33 N20P) [% WT binding] | Mean % WT Binding (human CD33 N20W) [% WT binding] | Mean % WT Binding (human CD33 N20E) [% WT binding] | Mean % WT Binding (human CD33 N20V) [% WT binding] | Mean % WT Binding (human CD33 F21S) [% WT binding] | Mean % WT Binding (human CD33 F21I) [% WT binding] | Mean % WT Binding (human CD33 W22T) [% WT binding] | Mean % WT Binding (human CD33 W22R) [% WT binding] | Mean % WT Binding (human CD33 L23M) [% WT binding] | Mean % WT Binding (human CD33 Q24S) [% WT binding] | Mean % WT Binding (human CD33 Q24T) [% WT binding] | Mean % WT Binding (human CD33 Q24L) [% WT binding] | Mean % WT Binding (human CD33 Q24N) [% WT binding] | Mean % WT Binding (human CD33 V25S) [% WT binding] | Mean % WT Binding (human CD33 T42K) [% WT binding] | other results | Binder |
| --- | --- | --- | --- | --- | --- | --- | --- | --- | --- | --- | --- | --- | --- | --- | --- | --- | --- | --- | --- | --- | --- |
| 73.8 | 5.1 | 45.5 | 6.9 | 78.5 | 2.9 | 0.6 | 0.3 | 4.2 | 6.4 | 1.9 | 6.2 | 7.4 | 94.4 | 60.2 | 81.4 | 80.9 | 86.5 | 106 | 106 | Mean % WT Binding (human CD33 T42P): 14.6 % WT binding; Mean % WT Binding (human CD33 F43V): 101 % WT binding; Mean % WT Binding (human CD33 F44S): 79.8 % WT binding; Mean % WT Binding (human CD33 F44P): 37.1 % WT binding; Mean % WT Binding (human CD33 F44Q): 106 % WT binding; Mean % WT Binding (human CD33 F44D): 98.9 % WT binding; Mean % WT Binding (human CD33 F44T): 107 % WT binding; Mean % WT Binding (human CD33 D18N): 69.6 % WT binding; Mean % WT Binding (human CD33 P46I): 38.2 % WT binding; Mean % WT Binding (human CD33 P46L): 28.9 % WT binding; Mean % WT Binding (human CD33 P46F): 1 % WT binding; Mean % WT Binding (human CD33 P46R): 1 % WT binding; Mean % WT Binding (human CD33 P19L): 91.6 % WT binding; Mean % WT Binding (human CD33 P19D): 2.6 % WT binding | Refmab #1 (antibody, human IgG1, V domains shown, Tested in IgG format; human IgG1 (Absolute Antibody hP67.6, Cat. No. Ab00283-10.0); also called hP67.6) VH: EVQLVQSGAEVKKPGSSVKVSCKASGYTITDSNIHWVRQAPGQSLEWIGYIYPYNGGTDYNQKFKNRATLTVDNPTNTAYMELSSLRSEDTAFYYCVNGNPWLAYWGQGTLVTVSS VL: DIQLTQSPSTLSASVGDRVTITCRASESLDNYGIRFLTWFQQKPGKAPKLLMYAASNQGSGVPSRFSGSGSGTEFTLTISSLQPDDFATYYCQQTKEVPWSFGQGTKVEVK |
| 71.2 | 3.6 | 4.6 | 2.2 | 9.4 | 1.7 | 0.7 | 0.5 | 0.5 | 3.4 | 0.5 | 1.3 | 0.9 | 98.1 | 5.3 | 3.9 | 11.8 | 35.3 | 104 | 103 | Mean % WT Binding (human CD33 T42P): 18.6 % WT binding; Mean % WT Binding (human CD33 F43V): 101 % WT binding; Mean % WT Binding (human CD33 F44S): 11.4 % WT binding; Mean % WT Binding (human CD33 F44P): 2 % WT binding; Mean % WT Binding (human CD33 F44Q): 105 % WT binding; Mean % WT Binding (human CD33 F44D): 1.2 % WT binding; Mean % WT Binding (human CD33 F44T): 83.3 % WT binding; Mean % WT Binding (human CD33 D18N): 71.5 % WT binding; Mean % WT Binding (human CD33 P46I): 1.8 % WT binding; Mean % WT Binding (human CD33 P46L): 0.7 % WT binding; Mean % WT Binding (human CD33 P46F): 0.2 % WT binding; Mean % WT Binding (human CD33 P46R): 1 % WT binding; Mean % WT Binding (human CD33 P19L): 117 % WT binding; Mean % WT Binding (human CD33 P19D): 0.6 % WT binding | Refmab #3 (antibody, human IgG1, V domains shown, Tested in IgG format; human IgG1 Fc silent (PG-LALA)) VH: QVQLVQSGAEVKKPGSSVKVSCKASGYTFTDYNMHWVRQAPGQGLEWIGYIYPYNGGTGYNQKFKSKATITADESTNTAYMELSSLRSEDTAVYYCARGRPAMDYWGQGTLVTVSS VL: DIQMTQSPSSLSASVGDRVTITCRASESVDNYGISFMNWFQQKPGKAPKLLIYAASNQGSGVPSRFSGSGSGTDFTLTISSLQPDDFATYYCQQSKEVPWTFGQGTKVEIK |
| 88.3 | 105 | 124 | 116 | 95.8 | 98.5 | 61.2 | 120 | 116 | 115 | 86.8 | 103 | 115 | 107 | 108 | 95.2 | 102 | 117 | 110 | 95.5 | Mean % WT Binding (human CD33 T42P): 12.7 % WT binding; Mean % WT Binding (human CD33 F43V): 24.5 % WT binding; Mean % WT Binding (human CD33 F44S): 0.8 % WT binding; Mean % WT Binding (human CD33 F44P): 0.4 % WT binding; Mean % WT Binding (human CD33 F44Q): 0.5 % WT binding; Mean % WT Binding (human CD33 F44D): 2 % WT binding; Mean % WT Binding (human CD33 F44T): 0.8 % WT binding; Mean % WT Binding (human CD33 D18N): 59.2 % WT binding; Mean % WT Binding (human CD33 P46I): 55.8 % WT binding; Mean % WT Binding (human CD33 P46L): 93.8 % WT binding; Mean % WT Binding (human CD33 P46F): 80.9 % WT binding; Mean % WT Binding (human CD33 P46R): 64.7 % WT binding; Mean % WT Binding (human CD33 P19L): 111 % WT binding; Mean % WT Binding (human CD33 P19D): 99.3 % WT binding | Refmab #2 (antibody, human IgG1, V domains shown, Tested in IgG format; human IgG1 Fc silent (PG-LALA)) VH: QVQLVQSGAEVKKPGSSVKVSCKASGGTFSDYAISWVRQAPGQGLEWMGRIIPILGVADYAQKFQGRVTITADKSTRTAYMELSSLRSEDTAVYYCARNWADAFDIWGQGTMVTVSS VL: DIQLTQSPSSLSASVGDRVTITCRASQGISSVLAWYQQKPGKAPKLLIYDASSLESGVPSRFSGSGSGTDFTLTISSLQPEDFATYYCQQFDSSITFGQGTKLEIK |
